20 molecules from PMC6555819, “Comprehensive study of nuclear receptor DNA binding provides a revised framework for understanding receptor specificity” can be followed below.

The target in series [1] is RXRa (Homo sapiens, UniProt P19793). Nature of the series: no ligand; PBM; 180 nM; PBS pH 7.4, 2% milk, 0.02% Triton X-100, 1 mM DTT, BSA, 0.4 mg/ml salmon testes DNA. Conditions: tags: His cleaved; chain copies: 2; label: surface-attached array probe.
For series [2], the target named is PPARg:RXRa (Homo sapiens, UniProt P37231;P19793 full;full). The experiment in a line: no ligand; PBM; 180 nM : 90 nM RXRa; PBS pH 7.4, 2% milk, 0.02% Triton X-100, 1 mM DTT, BSA, 0.4 mg/ml salmon testes DNA. Conditions: tags: His kept;His cleaved; copies: 1;1; label: surface-attached array probe.
PPARg:RXRa, sequence (P37231 29-505, chain 1 of 2): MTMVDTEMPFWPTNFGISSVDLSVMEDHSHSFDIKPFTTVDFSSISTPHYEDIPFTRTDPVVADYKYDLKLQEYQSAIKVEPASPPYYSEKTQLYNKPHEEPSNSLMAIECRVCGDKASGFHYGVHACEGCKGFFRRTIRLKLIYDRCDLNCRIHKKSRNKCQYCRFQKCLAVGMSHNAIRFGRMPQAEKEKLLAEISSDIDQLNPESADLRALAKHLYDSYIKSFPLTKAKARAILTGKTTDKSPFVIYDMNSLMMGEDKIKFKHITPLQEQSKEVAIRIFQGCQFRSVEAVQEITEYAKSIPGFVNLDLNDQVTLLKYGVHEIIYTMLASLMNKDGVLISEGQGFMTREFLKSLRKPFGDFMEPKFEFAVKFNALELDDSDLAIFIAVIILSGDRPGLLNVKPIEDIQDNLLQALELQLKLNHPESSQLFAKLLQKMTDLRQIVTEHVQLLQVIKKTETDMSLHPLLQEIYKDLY
PPARg:RXRa, sequence (P19793 whole entry, chain 2 of 2): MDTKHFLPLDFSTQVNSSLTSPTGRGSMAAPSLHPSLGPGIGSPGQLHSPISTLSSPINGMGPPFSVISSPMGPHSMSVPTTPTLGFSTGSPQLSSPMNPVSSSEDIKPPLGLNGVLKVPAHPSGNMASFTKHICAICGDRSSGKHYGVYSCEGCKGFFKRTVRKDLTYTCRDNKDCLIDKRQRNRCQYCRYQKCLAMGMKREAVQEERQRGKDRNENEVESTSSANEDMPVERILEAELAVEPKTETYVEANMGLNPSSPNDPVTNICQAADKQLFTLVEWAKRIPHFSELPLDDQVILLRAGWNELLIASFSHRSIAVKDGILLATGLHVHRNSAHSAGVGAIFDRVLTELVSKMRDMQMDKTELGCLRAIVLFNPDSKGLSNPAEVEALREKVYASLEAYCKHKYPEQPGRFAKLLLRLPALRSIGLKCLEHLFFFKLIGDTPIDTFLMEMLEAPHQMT
For series [3], the target named is PPARa:RXRa (Homo sapiens, UniProt Q07869;P19793 full;full). The experiment in a line: no ligand; PBM; 270 nM : 90 nM RXRa; PBS pH 7.4, 2% milk, 0.02% Triton X-100, 1 mM DTT, BSA, 0.4 mg/ml salmon testes DNA. As to conditions: tags: GST kept;His cleaved; copies: 1;1; label: surface-attached array probe. The essentials: (§1)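 Binding z-scores take random background probes as their reference. They come from custom Agilent 4×180K protein-binding microarrays incubated 1 h with ligand-free nuclear receptor dimers, with antibodies against each partner (one per run) detecting binding. Scanned fluorescence was regression-normalized.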
PPARa:RXRa, sequence (Q07869 whole entry, chain 1 of 2): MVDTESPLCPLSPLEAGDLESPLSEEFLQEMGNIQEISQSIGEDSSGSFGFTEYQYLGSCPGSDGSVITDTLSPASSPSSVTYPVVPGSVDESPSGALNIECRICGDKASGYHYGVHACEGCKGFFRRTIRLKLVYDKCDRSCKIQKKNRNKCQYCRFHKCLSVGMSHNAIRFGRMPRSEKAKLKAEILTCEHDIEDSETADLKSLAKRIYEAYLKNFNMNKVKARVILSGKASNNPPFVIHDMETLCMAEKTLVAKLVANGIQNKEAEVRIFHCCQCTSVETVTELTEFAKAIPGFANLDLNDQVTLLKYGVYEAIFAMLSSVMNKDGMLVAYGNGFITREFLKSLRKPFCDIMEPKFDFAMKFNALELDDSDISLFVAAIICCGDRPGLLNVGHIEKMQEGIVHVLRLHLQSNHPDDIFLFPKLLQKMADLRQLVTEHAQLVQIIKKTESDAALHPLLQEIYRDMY
PPARa:RXRa, sequence (P19793 whole entry, chain 2 of 2): as the sequence (P19793 whole entry, chain 2 of 2) above

In series [4] the target is LXRb:RXRa (Homo sapiens, UniProt P55055;P19793 full;full). The series is described as above. As to conditions: tags: His kept;His cleaved; copies: 1;1; label: surface-attached array probe. The essentials: as §1
LXRb:RXRa, sequence (P55055 whole entry, chain 1 of 2): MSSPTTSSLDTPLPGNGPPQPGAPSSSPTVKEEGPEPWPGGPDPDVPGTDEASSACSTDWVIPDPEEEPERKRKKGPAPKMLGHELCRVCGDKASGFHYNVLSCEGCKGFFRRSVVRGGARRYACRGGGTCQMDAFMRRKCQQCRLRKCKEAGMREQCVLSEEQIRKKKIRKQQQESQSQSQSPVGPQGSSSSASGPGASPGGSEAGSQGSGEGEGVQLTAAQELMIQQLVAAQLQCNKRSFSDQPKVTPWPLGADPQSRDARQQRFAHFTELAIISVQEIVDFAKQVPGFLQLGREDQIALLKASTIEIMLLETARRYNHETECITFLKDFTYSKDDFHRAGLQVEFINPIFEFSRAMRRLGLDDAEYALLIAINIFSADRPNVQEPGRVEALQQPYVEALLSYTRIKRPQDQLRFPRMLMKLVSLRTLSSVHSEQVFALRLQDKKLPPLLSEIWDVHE
LXRb:RXRa, sequence (P19793 whole entry, chain 2 of 2): as the sequence (P19793 whole entry, chain 2 of 2) above
In series [5] the target is FXR:RXRa (Homo sapiens, UniProt Q96RI1;P19793 full;full). Described as above. As to conditions: tags: His kept;His cleaved; copies: 1;1; label: surface-attached array probe. The essentials: as §1
FXR:RXRa, sequence (Q96RI1 whole entry, chain 1 of 2): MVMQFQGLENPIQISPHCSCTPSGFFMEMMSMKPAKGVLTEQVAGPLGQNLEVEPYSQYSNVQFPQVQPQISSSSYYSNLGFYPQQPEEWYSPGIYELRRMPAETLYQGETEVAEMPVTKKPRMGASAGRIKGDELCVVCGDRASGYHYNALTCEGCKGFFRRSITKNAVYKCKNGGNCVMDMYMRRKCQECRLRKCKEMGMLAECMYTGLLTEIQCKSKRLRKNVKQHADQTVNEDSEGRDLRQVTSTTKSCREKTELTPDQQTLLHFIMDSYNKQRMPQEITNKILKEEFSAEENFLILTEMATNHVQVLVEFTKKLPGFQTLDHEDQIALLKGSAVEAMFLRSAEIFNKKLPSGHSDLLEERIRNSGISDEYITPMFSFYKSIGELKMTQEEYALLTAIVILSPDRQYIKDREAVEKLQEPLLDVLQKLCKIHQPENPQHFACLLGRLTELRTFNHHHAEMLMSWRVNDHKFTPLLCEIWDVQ
FXR:RXRa, sequence (P19793 whole entry, chain 2 of 2): as the sequence (P19793 whole entry, chain 2 of 2) above
Series [6] deals with VDR:RXRa (Homo sapiens, UniProt P11473;P19793 full;full). The series is described as above. Conditions: tags: His kept;His cleaved; copies: 1;1; label: surface-attached array probe. The essentials: as §1
VDR:RXRa, sequence (P11473 whole entry, chain 1 of 2): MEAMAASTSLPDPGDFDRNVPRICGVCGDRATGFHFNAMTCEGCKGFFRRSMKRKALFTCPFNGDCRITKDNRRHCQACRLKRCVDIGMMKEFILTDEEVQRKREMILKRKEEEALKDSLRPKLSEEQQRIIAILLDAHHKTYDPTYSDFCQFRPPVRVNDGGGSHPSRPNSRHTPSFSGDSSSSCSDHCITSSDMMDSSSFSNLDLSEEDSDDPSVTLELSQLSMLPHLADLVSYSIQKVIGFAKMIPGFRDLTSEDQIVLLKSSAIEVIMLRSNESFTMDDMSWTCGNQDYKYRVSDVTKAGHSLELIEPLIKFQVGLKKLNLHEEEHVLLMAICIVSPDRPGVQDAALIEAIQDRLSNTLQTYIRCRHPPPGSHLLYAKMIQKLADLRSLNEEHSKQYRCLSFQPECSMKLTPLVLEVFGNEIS
VDR:RXRa, sequence (P19793 whole entry, chain 2 of 2): as the sequence (P19793 whole entry, chain 2 of 2) above
The target in series [7] is RARg:RXRa (Homo sapiens, UniProt P13631;P19793 full;full). Described as above. As to conditions: tags: His kept;His cleaved; copies: 1;1; label: surface-attached array probe. A digest of the protocol:
as §1

For series [8], the target named is RARb:RXRa (Homo sapiens, UniProt P10826;P19793 full;full). Described as above. Conditions: tags: His kept;His cleaved; copies: 1;1; label: surface-attached array probe. A digest of the protocol:
as §1

RARg:RXRa, sequence (P13631 whole entry, chain 1 of 2): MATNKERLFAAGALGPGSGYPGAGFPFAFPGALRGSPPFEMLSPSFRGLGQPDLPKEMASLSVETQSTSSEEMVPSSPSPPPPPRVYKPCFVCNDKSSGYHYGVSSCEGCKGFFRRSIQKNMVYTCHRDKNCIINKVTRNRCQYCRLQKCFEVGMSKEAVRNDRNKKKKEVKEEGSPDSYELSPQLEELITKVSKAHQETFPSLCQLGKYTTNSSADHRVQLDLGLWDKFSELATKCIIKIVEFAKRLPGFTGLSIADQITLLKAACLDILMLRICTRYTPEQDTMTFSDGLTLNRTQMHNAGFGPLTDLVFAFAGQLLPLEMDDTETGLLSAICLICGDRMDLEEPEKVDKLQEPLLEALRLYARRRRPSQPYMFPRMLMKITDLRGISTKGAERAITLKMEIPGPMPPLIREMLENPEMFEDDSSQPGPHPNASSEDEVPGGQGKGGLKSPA
RARg:RXRa, sequence (P19793 whole entry, chain 2 of 2): as the sequence (P19793 whole entry, chain 2 of 2) above
RXRa, sequence (P19793 whole entry): as the sequence (P19793 whole entry, chain 2 of 2) above
RARb:RXRa, sequence (P10826 whole entry, chain 1 of 2): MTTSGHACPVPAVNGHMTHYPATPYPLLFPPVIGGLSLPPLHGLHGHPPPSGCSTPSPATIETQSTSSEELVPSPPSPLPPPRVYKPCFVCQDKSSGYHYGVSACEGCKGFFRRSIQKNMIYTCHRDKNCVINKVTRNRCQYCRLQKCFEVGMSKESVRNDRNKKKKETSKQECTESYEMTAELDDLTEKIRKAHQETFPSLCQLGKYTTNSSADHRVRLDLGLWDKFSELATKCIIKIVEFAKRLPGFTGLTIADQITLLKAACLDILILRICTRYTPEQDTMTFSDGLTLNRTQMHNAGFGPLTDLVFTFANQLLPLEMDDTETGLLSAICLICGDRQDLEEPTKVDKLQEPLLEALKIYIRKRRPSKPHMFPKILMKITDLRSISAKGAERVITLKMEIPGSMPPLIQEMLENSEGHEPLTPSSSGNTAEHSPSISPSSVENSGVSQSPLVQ
RARb:RXRa, sequence (P19793 whole entry, chain 2 of 2): as the sequence (P19793 whole entry, chain 2 of 2) above

B1: NRC3_random_hg19_139_o1 (dsDNA)
DNA 1: GCAGGATCGCTTGAGTCCAGAGTTTGAGACCAGCCTGCGATTGACAGCGTAGAATGAAGG
DNA 2: CCTTCATTCTACGCTGTCAATCGCAGGCTGGTCTCAAACTCTGGACTCAAGCGATCCTGC
B1: the binding signal in series [1] was -0.68 PBM z-score against 500 random probes; in series [2], -0.51 PBM z-score against 500 random probes; in series [3], -1.12 PBM z-score against 500 random probes.

B2: NRC3_wobSeed47_DR1_G20C_o1 (dsDNA)
DNA 1: GCGGAACGAGGGCAAAGTTCATAGCATCTGTCGACGGCGATTGACAGCGTAGAATGAAGG
DNA 2: CCTTCATTCTACGCTGTCAATCGCCGTCGACAGATGCTATGAACTTTGCCCTCGTTCCGC
With B2, the binding signal in series [2] is 10.2 PBM z-score against 500 random probes; in series [4] it was 3.56 PBM z-score against 500 random probes.

B3: NRC3_wobSeed47_DR1_G12T_o1 (dsDNA)
DNA 1: GCGGAACGAGGTCAAAGTTGATAGCATCTGTCGACGGCGATTGACAGCGTAGAATGAAGG
DNA 2: CCTTCATTCTACGCTGTCAATCGCCGTCGACAGATGCTATCAACTTTGACCTCGTTCCGC
On to B3, for which the binding signal in series [1] was 8.54 PBM z-score against 500 random probes; in series [2], 10.5 PBM z-score against 500 random probes; in series [3], 6.61 PBM z-score against 500 random probes; in series [5], 8.06 PBM z-score against 500 random probes.

B4: NRC3_wobSeed49_DR2_A17G_o1 (dsDNA)
DNA 1: GCCAAACTAGGTCAAGGGGTCAAAGTCCGCTTCCCGGCGATTGACAGCGTAGAATGAAGG
DNA 2: CCTTCATTCTACGCTGTCAATCGCCGGGAAGCGGACTTTGACCCCTTGACCTAGTTTGGC
Regarding B4, the binding signal in series [2] is 10.8 PBM z-score against 500 random probes; in series [6], 6.63 PBM z-score against 500 random probes.

B5: NRC3_random_hg19_189_o1 (dsDNA)
DNA 1: GCATCTGCCTTGCTCTTTCTACCTTTCAGTGTCTTTGCGATTGACAGCGTAGAATGAAGG
DNA 2: CCTTCATTCTACGCTGTCAATCGCAAAGACACTGAAAGGTAGAAAGAGCAAGGCAGATGC
Regarding B5, the figures for the binding signal in series [1] and in series [2] were -0.72 PBM z-score against 500 random probes and -1.57 PBM z-score against 500 random probes, respectively.

B6: NRC3_random_hg19_293_o1 (dsDNA)
DNA 1: GCGGAGAGGTCTTAGGATGCATTGGAGGCACAGTGTGCGATTGACAGCGTAGAATGAAGG
DNA 2: CCTTCATTCTACGCTGTCAATCGCACACTGTGCCTCCAATGCATCCTAAGACCTCTCCGC
As for B6, the binding signal was 0.47 PBM z-score against 500 random probes in series [2] and 0.06 PBM z-score against 500 random probes in series [6].

B7: NRC3_random_hg19_393_o1 (dsDNA)
DNA 1: GCTCCCAGCCACTCAGGAGGCTGAGGCAGGAGAATTGCGATTGACAGCGTAGAATGAAGG
DNA 2: CCTTCATTCTACGCTGTCAATCGCAATTCTCCTGCCTCAGCCTCCTGAGTGGCTGGGAGC
As for B7, the binding signal in series [2] is -0.69 PBM z-score against 500 random probes; in series [5], -1.65 PBM z-score against 500 random probes.

B8: NRC3_random_hg19_399_o1 (dsDNA)
DNA 1: GCATGAGATTTCACTGTGTTAGCCAGGATGGTCTCCGCGATTGACAGCGTAGAATGAAGG
DNA 2: CCTTCATTCTACGCTGTCAATCGCGGAGACCATCCTGGCTAACACAGTGAAATCTCATGC
For B8, the binding signal was -0.2 PBM z-score against 500 random probes in series [1] and 0.22 PBM z-score against 500 random probes in series [2].

B9: NRC3_wobSeed5_DR0_A14T_o1 (dsDNA)
DNA 1: GCCCTTACGGGTCTAGGTTATAGCACGGGTGGTACGGCGATTGACAGCGTAGAATGAAGG
DNA 2: CCTTCATTCTACGCTGTCAATCGCCGTACCACCCGTGCTATAACCTAGACCCGTAAGGGC
As to B9, the figures for the binding signal in series [1], in series [2] and in series [7] were 0.15 PBM z-score against 500 random probes, 0.3 PBM z-score against 500 random probes and 0.05 PBM z-score against 500 random probes, respectively.

B10: NRC3_random_hg19_207_o1 (dsDNA)
DNA 1: GCGCAAAGGCTGCGGTGCAATCCTGCATTCTTGTTCGCGATTGACAGCGTAGAATGAAGG
DNA 2: CCTTCATTCTACGCTGTCAATCGCGAACAAGAATGCAGGATTGCACCGCAGCCTTTGCGC
In the case of B10, the binding signal in series [2] is -0.83 PBM z-score against 500 random probes; in series [6] it was -0.78 PBM z-score against 500 random probes; in series [5], -0.69 PBM z-score against 500 random probes.

B11: NRC3_random_hg19_123_o1 (dsDNA)
DNA 1: GCGTGGAGAAAGTTCTGAGACTGAAGATGACTTTCCGCGATTGACAGCGTAGAATGAAGG
DNA 2: CCTTCATTCTACGCTGTCAATCGCGGAAAGTCATCTTCAGTCTCAGAACTTTCTCCACGC
Take B11: the results for the binding signal in series [2] and in series [4] were 0.25 PBM z-score against 500 random probes and 0.02 PBM z-score against 500 random probes, respectively.

B12: NRC3_random_hg19_396_o1 (dsDNA)
DNA 1: GCTTGTTGTGGTTGATGTTGTTCACTCTCAGTCTCCGCGATTGACAGCGTAGAATGAAGG
DNA 2: CCTTCATTCTACGCTGTCAATCGCGGAGACTGAGAGTGAACAACATCAACCACAACAAGC
Turning to B12, the figures for the binding signal in series [2] and in series [8] were -0.98 PBM z-score against 500 random probes and 0.5 PBM z-score against 500 random probes, respectively.

B13: NRC3_random_hg19_404_o1 (dsDNA)
DNA 1: GCACTTCGTGATCTGCCTGCCTTAGCCTCCCAAAGTGCGATTGACAGCGTAGAATGAAGG
DNA 2: CCTTCATTCTACGCTGTCAATCGCACTTTGGGAGGCTAAGGCAGGCAGATCACGAAGTGC
For B13, the binding signal in series [2] is -1.16 PBM z-score against 500 random probes; in series [8], -0.25 PBM z-score against 500 random probes.

B14: NRC3_wobSeed133_DR5_T12A_o1 (dsDNA)
DNA 1: GCCGTCCAAGGACAATGCTAGGTCAGTGAAAGCATTGCGATTGACAGCGTAGAATGAAGG
DNA 2: CCTTCATTCTACGCTGTCAATCGCAATGCTTTCACTGACCTAGCATTGTCCTTGGACGGC
As to B14, the values for the binding signal in series [2] and in series [5] were 0.18 PBM z-score against 500 random probes and 0.29 PBM z-score against 500 random probes, respectively.

B15: NRC3_random_hg19_197_o1 (dsDNA)
DNA 1: GCGCAACCTCTGCCTCTCAGGCTCAAGTGACCTTCCGCGATTGACAGCGTAGAATGAAGG
DNA 2: CCTTCATTCTACGCTGTCAATCGCGGAAGGTCACTTGAGCCTGAGAGGCAGAGGTTGCGC
For the molecule B15, the binding signal in series [2] was -0.35 PBM z-score against 500 random probes; in series [8] it was 0.45 PBM z-score against 500 random probes; in series [7], 0.42 PBM z-score against 500 random probes.

B16: NRC3_random_hg19_278_o1 (dsDNA)
DNA 1: GCGCTACTTGGGAGGCTGAGATGGTAGAATCACTTGGCGATTGACAGCGTAGAATGAAGG
DNA 2: CCTTCATTCTACGCTGTCAATCGCCAAGTGATTCTACCATCTCAGCCTCCCAAGTAGCGC
For B16, the binding signal is -0.89 PBM z-score against 500 random probes in series [1] and -0.02 PBM z-score against 500 random probes in series [2].

B17: NRC3_wobSeed69_DR2_C6A_o1 (dsDNA)
DNA 1: GCAGTAAAAGTTCACTAGGTAACGTAAGATTCAGCTGCGATTGACAGCGTAGAATGAAGG
DNA 2: CCTTCATTCTACGCTGTCAATCGCAGCTGAATCTTACGTTACCTAGTGAACTTTTACTGC
With B17, the binding signal in series [2] was 5.13 PBM z-score against 500 random probes; in series [6], 3.55 PBM z-score against 500 random probes.

B18: NRC3_wobSeed69_DR2_T11G_o1 (dsDNA)
DNA 1: GCAGTCAAAGGTCACTAGGTAACGTAAGATTCAGCTGCGATTGACAGCGTAGAATGAAGG
DNA 2: CCTTCATTCTACGCTGTCAATCGCAGCTGAATCTTACGTTACCTAGTGACCTTTGACTGC
Regarding B18, the binding signal in series [1] is 7.84 PBM z-score against 500 random probes; in series [2], 10.2 PBM z-score against 500 random probes; in series [8], 5.88 PBM z-score against 500 random probes; in series [7], 7.59 PBM z-score against 500 random probes.

B19: NRC3_wobSeed46_DR1_C6T_o1 (dsDNA)
DNA 1: GCTTATCAAGGTGAAAGGTCGTTGATGCACGCCTTGGCGATTGACAGCGTAGAATGAAGG
DNA 2: CCTTCATTCTACGCTGTCAATCGCCAAGGCGTGCATCAACGACCTTTCACCTTGATAAGC
For the molecule B19, the binding signal in series [2] was 10.9 PBM z-score against 500 random probes; in series [8], 3.04 PBM z-score against 500 random probes.

B20: NRC3_wobSeed46_DR1_C6A_o1 (dsDNA)
DNA 1: GCTTAACAAGGTGAAAGGTCGTTGATGCACGCCTTGGCGATTGACAGCGTAGAATGAAGG
DNA 2: CCTTCATTCTACGCTGTCAATCGCCAAGGCGTGCATCAACGACCTTTCACCTTGTTAAGC
On to B20, for which the binding signal in series [2] is 10.4 PBM z-score against 500 random probes; in series [6], 3.31 PBM z-score against 500 random probes.
